From publication PMC6279252

Experiments:
[1] = target: stable Ragulator-VhH + GFP-Rag complexes (UniProt Q9Y2Q5); assay: single-molecule imaging on beads
[2] = target: GST-Ragulator pre-incubated with GFP-tagged active-loaded Rag heterodimers (UniProt Q6IAA8); assay: single-molecule imaging on beads

UniProt Q9Y2Q5, sequence (Q9Y2Q5 whole entry, looked up, one chain of several): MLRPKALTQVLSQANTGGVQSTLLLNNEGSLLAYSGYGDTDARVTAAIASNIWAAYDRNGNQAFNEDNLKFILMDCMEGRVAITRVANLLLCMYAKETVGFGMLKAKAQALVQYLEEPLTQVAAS

residence time (photobleaching-corrected half-life, t1/2) [1]: 13.2 s
residence time (photobleaching-corrected half-life, t1/2) [2]: 3.1 s
Substance: Raptor-Halo^TMR (co-purified with mTOR and mLST8) (from UniProt Q8N122;P42345;Q9BVC4) (complex)
